The text below walks through data of publication PMC11321319, “Shy is a proteobacterial steroid hydratase which catalyzes steroid side chain degradation without requiring a catalytically inert partner domain” (The Journal of Biological Chemistry, 2024).

One may read the Km as the substrate concentration at which the rate is half of its maximum. Usually kcat stands for the number of substrate molecules converted per active site and unit of time at saturation. For orientation: kcat/Km means the second-order rate constant that governs catalysis at low substrate concentration. One may read the stoichiometry N as the number of molecules, sites or subunits per partner or assembly.

In series [1] the test system is T1, C/C=C/C(=O)SCCNC(=O)CCNC(=O)[C@H](O)C(C)(C)COP(=O)(O)OP(=O)(O)OC[C@H]1O[C@@H](n2cnc3c(N)ncnc32)[C@H](O)[C@@H]1OP(=O)(O)O.
T1 construct: C-terminal MaoC domain only (DUF35 removed), His-tagged (pET28a NdeI/HindIII), from E. coli BL21 LOBSTR; homodimer
Description: purified protein. It is filed as biochemical, Comamonas testosteroni. As to conditions: 100 mM sodium Hepes pH 7.5, 25 °C.

Series [2] concerns T2, C[C@H](/C=C/C(=O)SCCNC(=O)CCNC(=O)[C@H](O)C(C)(C)COP(=O)(O)OP(=O)(O)OC[C@H]1O[C@@H](n2cnc3c(N)ncnc32)[C@H](O)[C@@H]1OP(=O)(O)O)[C@H]1CC[C@H]2[C@@H]3[C@H](O)C[C@@H]4C[C@H](O)CC[C@]4(C)[C@H]3C[C@H](O)[C@]12C.
T2 construct: C-terminal MaoC domain only (DUF35 removed), His-tagged (pET28a NdeI/HindIII), from E. coli BL21 LOBSTR; homodimer
In words: purified protein. Type of series: biochemical, Comamonas testosteroni. The following applies: 100 mM sodium Hepes pH 7.5, 25 °C.

Series [3] deals with the molecule itself. In words: SEC; analytical size-exclusion chromatography, Superdex 200, 20 mM sodium Hepes pH 7.5, 0.15 M NaCl; native molecular weight from a standard curve. In general terms: In gel filtration, larger molecules generally elute earlier.
Substrate in series [4]: C[C@H](/C=C/C(=O)SCCNC(=O)CCNC(=O)[C@H](O)C(C)(C)COP(=O)(O)OP(=O)(O)OC[C@H]1O[C@@H](n2cnc3c(N)ncnc32)[C@H](O)[C@@H]1OP(=O)(O)O)[C@H]1CC[C@H]2[C@@H]3[C@H](O)C[C@@H]4C[C@H](O)CC[C@]4(C)[C@H]3C[C@H](O)[C@]12C
Description: purified protein. It is filed as biochemical, Comamonas testosteroni. The following applies: 100 mM sodium Hepes pH 7.5, 25 °C.

In series [5] the target is T3, N-terminal His-tagged Sal (side chain aldolase / steroid aldolase) from Comamonas testosteroni KF-1 (Comamonas testosteroni KF-1, UniProt B7X4S8 1-404).
T3 construct: gene amplified from genomic DNA; theoretical molecular weight of tagged Sal 46.08 kDa; Cloned into pMCSG7 by ligation independent cloning; source: E. coli BL21 LOBSTR (pMCSG7), coexpressed with untagged Shy or its truncated forms; in cell extract, then purified on Ni-NTA; not shown: His tag, N-terminal, kept
T3 sequence (looked up): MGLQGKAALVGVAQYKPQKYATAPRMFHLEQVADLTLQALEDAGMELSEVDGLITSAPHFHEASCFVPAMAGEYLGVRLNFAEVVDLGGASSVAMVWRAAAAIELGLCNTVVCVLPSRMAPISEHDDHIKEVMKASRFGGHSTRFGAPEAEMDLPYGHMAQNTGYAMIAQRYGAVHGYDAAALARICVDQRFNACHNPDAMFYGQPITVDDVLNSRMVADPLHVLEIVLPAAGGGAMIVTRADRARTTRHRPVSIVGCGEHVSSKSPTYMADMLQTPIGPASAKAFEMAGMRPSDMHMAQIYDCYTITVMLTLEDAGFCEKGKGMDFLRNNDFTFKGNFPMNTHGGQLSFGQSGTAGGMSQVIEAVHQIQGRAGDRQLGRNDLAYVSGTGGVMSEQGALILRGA
Description: SEC; analytical size-exclusion chromatography, Superdex 200, 20 mM sodium Hepes pH 7.5, 0.15 M NaCl; native molecular weight from a standard curve. As to conditions: both partners purified.

Substrate in series [6]: C[C@H](C(O)CC(=O)SCCNC(=O)CCNC(=O)[C@H](O)C(C)(C)COP(=O)(O)OP(=O)(O)OC[C@H]1O[C@@H](n2cnc3c(N)ncnc32)[C@H](O)[C@@H]1OP(=O)(O)O)[C@H]1CC[C@H]2[C@@H]3[C@H](O)C[C@@H]4C[C@H](O)CC[C@]4(C)[C@H]3C[C@H](O)[C@]12C
Description: purified protein. It is filed as biochemical, Comamonas testosteroni. As to conditions: 100 mM sodium Hepes pH 7.5, 25 °C, 1 mM NAD+, 7 nM Sad (coupling enzyme).

Substrate in series [7]: C/C=C/C(=O)SCCNC(=O)CCNC(=O)[C@H](O)C(C)(C)COP(=O)(O)OP(=O)(O)OC[C@H]1O[C@@H](n2cnc3c(N)ncnc32)[C@H](O)[C@@H]1OP(=O)(O)O
In words: purified protein. Type of series: biochemical, Comamonas testosteroni. As to conditions: 100 mM sodium Hepes pH 7.5, 25 °C.

Substrate in series [8]: C[C@H](/C=C/C(=O)SCCNC(=O)CCNC(=O)[C@H](O)C(C)(C)COP(=O)(O)OP(=O)(O)OC[C@H]1O[C@@H](n2cnc3c(N)ncnc32)[C@H](O)[C@@H]1OP(=O)(O)O)[C@H]1CC[C@H]2[C@@H]3CC=C4C[C@@H](O)CC[C@]4(C)[C@H]3CC[C@]12C
In words: purified protein. Type of series: biochemical, Comamonas testosteroni. As to conditions: 100 mM sodium Hepes pH 7.5, 25 °C.

For “ShyMaoC (Comamonas testosteroni KF-1; I309F)”, in series [1], the Km stood at 65.0 ± 3.25 µM, the kcat stood at 0.00555 ± 0.000129 s⁻¹ and the kcat/Km turned out to be 85.4 ± 4.71 M⁻¹ s⁻¹. Besides, in series [2], the Km was found to be 12.3 ± 1.05 µM, the kcat came to 67.2 ± 2.77 s⁻¹ and the kcat/Km was found to be 5.46e+06 ± 518000 M⁻¹ s⁻¹.

B1: His-tagged Shy_(MaoC), MaoC domain of Shy (domain or fragment, Comamonas testosteroni KF-1, UniProt B7X4S7 148-312, looked up)
chain: EVAVVEQSVAAKRRISVKDIEAMKSLVSEEYSPWSNEFTVSQEVIDEFARLSGDDYWIHTDPVQAREKSPFGTTIAHGALVQVLASQLRIPLDYEVVDFNNMVNYGSDRLRFPTPVPSGCKIRARARIKAVEQVRSGVQATMELNIHVVGQDRPAVINDLVILYM
notes: theoretical molecular weight of the tagged construct 20.5 kDa; Inserted into pET28a between NdeI and HindIII; source: E. coli BL21 LOBSTR (pET28a), purified (Ni-NTA)
As to B1, the “stoichiometry N” value in series [3] was determined as 2.

B2: Untagged Shy (side chain hydratase) from Comamonas testosteroni KF-1 (enzyme, UniProt B7X4S7 1-312, looked up)
chain: MAWNKPLPHPTEISAPYWEGLKAHEVRIQQCDRGHSLFFPRTHCPTCGSRSLKWSKVSGEGTLYSFTVARIPTMPEFTDEMPQALAVIELREGVRINTTMVGVAPEALKVGMEVRPVFDERPGEVTLLRFTAHAGSHPSVIKADAESEVAVVEQSVAAKRRISVKDIEAMKSLVSEEYSPWSNEFTVSQEVIDEFARLSGDDYWIHTDPVQAREKSPFGTTIAHGALVQVLASQLRIPLDYEVVDFNNMVNYGSDRLRFPTPVPSGCKIRARARIKAVEQVRSGVQATMELNIHVVGQDRPAVINDLVILYM
notes: N-terminal DUF35 domain and C-terminal MaoC domain; theoretical molecular weight 34.81 kDa; called 'the full protein' in the discussion; source: E. coli BL21 LOBSTR (pBTLactac, tagless), coexpressed with His-tagged Sal; in cell extract, then copurified on Ni-NTA
As to B2, in the series “purified protein [4]”, the Km was 6.19 ± 0.446 µM, the kcat amounted to 163 ± 1.5 s⁻¹ and the kcat/Km came to 2.64e+07 ± 1.91e+06 M⁻¹ s⁻¹. Further, the “stoichiometry N” value in series [5] was 1 Shy per Sal (2:2 complex).

B3: Shy-Sal (aldolase site in Sal) (Comamonas testosteroni KF-1) (protein)
chain: T3 sequence (looked up)
notes: same complex as P1: N-terminally His-tagged Sal with untagged full-length Shy, from E. coli BL21 LOBSTR; 160 kDa heterotetramer; with Side chain hydratase Shy, bifunctional OB-fold (DUF35) / MaoC family dehydratase domain-containing protein
As to B3, in “purified protein [6]”, the Michaelis constant (Km) is 8.12 ± 0.477 µM, the kcat is 37.6 ± 0.8 s⁻¹ and the specificity constant (kcat/Km) stood at 4.63e+06 ± 289000 M⁻¹ s⁻¹.

B4: ShyMaoC (Comamonas testosteroni KF-1) (protein)
chain: ESEVAVVEQSVAAKRRISVKDIEAMKSLVSEEYSPWSNEFTVSQEVIDEFARLSGDDYWIHTDPVQAREKSPFGTTIAHGALVQVLASQLRIPLDYEVVDFNNMVNYGSDRLRFPTPVPSGCKIRARARIKAVEQVRSGVQATMELNIHVVGQDRPAVINDLVILYM
notes: C-terminal MaoC domain only (DUF35 removed), His-tagged (pET28a NdeI/HindIII), from E. coli BL21 LOBSTR; homodimer
With B4, the values for the Michaelis-Menten constant (Km) in the series “purified protein [7]”, in the series “purified protein [8]” and in the series “purified protein [4]” were 63.6 ± 3.62 µM, 6.71 ± 0.588 µM and 6.14 ± 0.524 µM, respectively. Besides, the kcat was 0.00412 ± 0.00011 s⁻¹ in “purified protein [7]”, 62.9 ± 2.32 s⁻¹ in the series “purified protein [8]” and 211 ± 6.71 s⁻¹ in “purified protein [4]”. Also, the specificity constant (kcat/Km) in the series “purified protein [7]” worked out at 64.8 ± 4.07 M⁻¹ s⁻¹; in the series “purified protein [8]”, 9.37e+06 ± 890000 M⁻¹ s⁻¹; in “purified protein [4]”, 3.44e+07 ± 3.13e+06 M⁻¹ s⁻¹.
